Key:
[1] = Distribution coefficient (LogD7.4), shake-flask method; assay type: physicochemical; settings: n-octanol/PBS pH 7.4, n = 3; read-out: Log D7.4
Description: Distribution coefficients (LogD7.4) for the ^111In-labeled compounds were determined by a shake-flask method. The experiments were performed in triplicate for each radioligand. A sample containing the radioligand (0.5–2.0 MBq) was dissolved in 1 mL solution of phosphate-buffered saline (0.01 M, pH 7.4) and n-octanol (v:v = 1:1). The vials were vortexed vigorously and then centrifuged at 10,000 rpm for 3 min, for phase separation. Samples (10 μL) of each phase were taken out and analyzed using a gamma counter. LogD7.4 values were calculated, using the following equation: LogD7.4 = log {(counts in n-octanol phase)/(counts in PBS phase)}.

[2] = Stability in PBS at 37 °C (iTLC); assay type: physicochemical; settings: intact labeled ligand after incubation at 37 °C in PBS, n = 1
Description: Stability in PBS was determined by incubating 20 µL of the labeled compounds (∼11 MBq) in PBS (80 µL) at 37 °C. Radiochemical purity was determined by iTLC at 30 min, 1 h, 2 h and 4 h. Stability in the serum was carried out by adding 70 µL of the labeled compound (∼35 MBq) to 330 µL of mouse serum (Merck, Haarlerbergweg, The Netherlands). The mixture was incubated at 37 °C. At different time points (30 min, 1 h, 2 h and 4 h), an aliquot of the mixture (50 µL) was added to 50 µL ACN. The vial was vortexed and centrifuged at 10,000 rpm for 20 min and the supernatant was analyzed by iTLC.

[3] = In vivo SPECT/CT imaging, VOI quantification; settings: male, Balb/c nu/nu, mouse, tumor and kidneys (in vivo VOIs), iv, total radioactivity; from SPECT VOI %IA/mL, 2 h p.i., i.v., non-blocked, n = 3; read-out: Tumor-to-kidney ratio (SPECT)
Description: Seven-week-old male Balb/c nu/nu-specific and opportunistic pathogen-free (SOPF) mice (Janvier Labs, Le Genest-Saint-Isle, France) were housed in individually ventilated cages, with 4 mice per cage. Upon arrival, mice were acclimated for 1 week, with access to food and water ad libitum. […]
Mice (n = 3 per probe) were intravenously injected in the tail vein with 200 µL of Kolliphor® HS 15 (Merck, Haarlerbergweg, The Netherlands) in PBS (0.06 mg/mL) containing [^111In]In-12 (13.40 ± 0.76 MBq, ~670 pmol) or [^111In]In-15 (17.50 ± 1.78 MBq, ~875 pmol). […] The CT and registered, attenuation-corrected SPECT images were analyzed using PMOD (PMOD 3.9, Zurich, Switzerland) and quantification was performed by placing volumes of interest (VOIs) around the tumors and kidneys. An Eppendorf tube filled with a solution of indium-111 of a known activity was measured to determine the calibration factor. The total activity measured in the VOI was divided by the volume of all VOI pixel values and multiplied by the calibration factor to obtain the percentage of injected activity per volume unit (%IA/mL).

SMILES | logD [1] | Stability in PBS (%) 30 min [2] [%] | Stability in PBS (%) 1 h [2] [%] | Stability in PBS (%) 2 h [2] [%] | Stability in PBS (%) 4 h [2] [%] | tissue to tissue ratio at 2 h [3]
CC(C)CC(CC(C)C)NC(=O)[C@H](Cc1c[nH]cn1)NC(=O)CNC(=O)[C@@H](NC(=O)[C@H](C)NC(=O)[C@H](Cc1c[nH]c2ccccc12)NC(=O)[C@H](CCC(N)=O)NC(=O)[C@@H](Cc1ccccc1)NC(=O)COCC(=O)Nc1ccc(CNC(=O)[C@H](CCCCNC(=O)CCOCCOCCOCCOCCNC(=O)OC2CCCC3C=NN=C(c4ccc(CNC(=O)CCCCC[N+]5=C(/C=C/C=C/C=C6N(C)c7ccc(S(=O)(=O)O)cc7C6(C)C)C(C)(C)c6cc(S(=O)(=O)[O-])ccc65)cc4)C3CC2)NC(=O)CN2CCN(CC(=O)O)CCN(CC(=O)O)CCN(CC(=O)O)CC2)cc1)C(C)C (stereo partly drawn) [[^111In]In-12, metal not drawn] | -1.66 ± 0.01 | 85.8 | 80.1 | 75.0 | 73.1 | 0.47 ± 0.05
CC(C)CC(CC(C)C)NC(=O)[C@H](Cc1c[nH]cn1)NC(=O)CNC(=O)[C@@H](NC(=O)[C@H](C)NC(=O)[C@H](Cc1c[nH]c2ccccc12)NC(=O)[C@H](CCC(N)=O)NC(=O)[C@@H](Cc1ccccc1)NC(=O)CCOCCOCCOCCOCCNC(=O)[C@H](CCCCNC(=O)OC1CCCC2C=NN=C(c3ccc(CNC(=O)CCCCC[N+]4=C(/C=C/C=C/C=C5N(C)c6ccc(S(=O)(=O)O)cc6C5(C)C)C(C)(C)c5cc(S(=O)(=O)[O-])ccc54)cc3)C2CC1)NC(=O)CN1CCN(CC(=O)O)CCN(CC(=O)O)CCN(CC(=O)O)CC1)C(C)C (stereo partly drawn) [[^111In]In-15, metal not drawn] | -1.75 ± 0.09 | 83.0 | 71.8 | 67.0 | 57.1 | 0.49 ± 0.05

From article PMC8778164, “Towards Complete Tumor Resection: Novel Dual-Modality Probes for Improved Image-Guided Surgery of GRPR-Expressing Prostate Cancer” (Pharmaceutics, 2022)
